Experimental data as given in article PMC11298625, “MdVQ17 negatively regulates apple resistance to Glomerella leaf spot by promoting MdWRKY17-mediated salicylic acid degradation and pectin lyase activity”.

target: MdWRKY17 (Malus x domestica, UniProt A0A9E6GT21 1-512); assay: EMSA; Chemiluminescent EMSA Kit (Beyotime); buffer, salt, pH and temperature not stated; settings: protein: recombinant; tags: His (pET32a); label: biotin; blunt
Sequence (A0A9E6GT21 entry or part of it): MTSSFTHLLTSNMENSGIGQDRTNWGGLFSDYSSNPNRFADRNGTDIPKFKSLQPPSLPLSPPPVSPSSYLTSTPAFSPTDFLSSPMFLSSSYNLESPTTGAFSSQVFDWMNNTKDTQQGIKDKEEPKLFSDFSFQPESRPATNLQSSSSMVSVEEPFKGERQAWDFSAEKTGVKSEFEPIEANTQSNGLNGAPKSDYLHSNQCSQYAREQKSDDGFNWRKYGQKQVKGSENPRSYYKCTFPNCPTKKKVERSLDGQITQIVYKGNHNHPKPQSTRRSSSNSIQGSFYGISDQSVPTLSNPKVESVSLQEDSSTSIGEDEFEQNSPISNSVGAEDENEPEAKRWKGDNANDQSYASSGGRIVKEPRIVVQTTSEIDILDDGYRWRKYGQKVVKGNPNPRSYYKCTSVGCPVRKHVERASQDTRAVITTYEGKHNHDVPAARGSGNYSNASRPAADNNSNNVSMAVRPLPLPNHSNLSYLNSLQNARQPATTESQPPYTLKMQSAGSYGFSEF

Binder	binding result
MdDMR6 probe (dsDNA) DNA 1: ATATTGTTTTCTGCATTTTTGACTTAATTTTTATAAATTAA DNA 2: TTAATTTATAAAAATTAAGTCAAAAATGCAGAAAACAATAT	binds
MdPL-like-P1 probe (dsDNA) DNA 1: AGGAGTACCTTTGGTCAAACTATATTCAAA DNA 2: TTTGAATATAGTTTGACCAAAGGTACTCCT	binds
MdPL-like-P2 probe (dsDNA) DNA 1: AAGTCAACTAAAAAAGTCAACGTCTGACCGTTGACTGGTCAAAG DNA 2: CTTTGACCAGTCAACGGTCAGACGTTGACTTTTTTAGTTGACTT	binds
MdPL-like-P3 probe (dsDNA) DNA 1: AGTTGACCATTGACCGTTGACTGAGTCAACAGTCAAGGTCAACT DNA 2: AGTTGACCTTGACTGTTGACTCAGTCAACGGTCAATGGTCAACT	binds
